Laboratory results reported in US12269859B2, “Synthetic immune receptors and methods of use thereof” (Angeles Therapeutics, Inc., priority 2016, dated 2025).

B1: 101216-H03 (protein)
chain: MALPVTALLLPLALLLHAARPEIVMTQSPATLSLSPGERATLSCRASQDISKYLNWYQQKPGQAPRLLIYHTSRLHSGIPARFSGSGSGTDYTLTISSLQPEDFAVYFCQQGNTLPYTFGQGTKLEIKLEGKPIPNPLLGLDSTGSGEDLKNVFPPEVAVFEPSKAEIAHTQKATLVCLATGFYPDHVELSWWVNGKEVHSGVCTDPQPLKEQPALNDSRYCLSSRLRVSATFWQNPRNHFRCQVQFYGLSENDEWTQDRAKPVTQIVSAEAWGRADCGITSASYHQGVLSATILYEILLGKATLYAVLVSALVLMAMVKRKDSRGRAKRSGSGATNFSLLKQAGDVEENPGPTSMDWIWRILFLVGAATGAHSFEDIQMTQTTSSLSASLGDRVTISCRASQDISKYLNWYQQKPDGTVKLLIYHTSRLHSGVPSRFSGSGSGTDYSLTISNLEQEDIATYFCQQGNTLPYTFGGGTKLEITTREQKLISEEDGSGIQNPDPAVYQLRDSKSSDKSVCLFTDFDSQTNVSQSKDSDVYITDKCVLDMRSMDFKSNSAVAWSNKSDFACANAFNNSIIPEDTFFPSSDVPCDVKLVEKSFETDTNLNFQNLSVIGFRILLLKVAGFNLLMTLRLWSSRAKRSGSGVKQTLNFDLLKLAGDVESNPGPSRGHMTEYKPTVRLATRDDVPRAVRTLAAAFADYPATRHTVDPDRHIERVTELQELFLTRVGLDIGKVWVADDGAAVAVWTTPESVEAGAVFAEIGPRMAELSGSRLAAQQQMEGLLAPHRPKEPAWFLATVGVSPDHQGKGLGSAVVLPGVEAAERAGVPAFLETSAPRNLPFYERLGFTVTADVEVPEGPRTWCMTRKPGA
B2: 012617-N02 (protein)
chain: MALPVTALLLPLALLLHAARPLEGKPIPNPLLGLDSTGSGEDLKNVFPPEVAVFEPSKAEIAHTQKATLVCLATGFYPDHVELSWWVNGKEVHSGVCTDPQPLKEQPALNDSRYCLSSRLRVSATFWQNPRNHFRCQVQFYGLSENDEWTQDRAKPVTQIVSAEAWGRADCGITSASYHQGVLSATILYEILLGKATLYAVLVSALVLMAMVKRKDSRGRAKRSGSGATNFSLLKQAGDVEENPGPTSMALPVTALLLPLALLLHAARPQSVVTQPPSVSAAPGQKVTISCSGSSSNIGNNYVSWYQQLPGTAPKLLIYDNNKRPSGIPDRFSGSKSGTSATLGITGLQTGDEADYYCGTWDGSLYTMLFGGGTKLTVLGGGGSGGGGSGGGGSEVQLVESGGGLVKPGGSLRLSCAASGFTFSNAWMSWVRQAPGKGLEWVGFIRSKAYGGTTEYAASVKGRFTISRDDSKSIAYLQMNNLKTEDTAVYYCARDGLYSSSWYDSDYWGQGTLVTVSSTREQKLISEEDGSGIQNPDPAVYQLRDSKSSDKSVCLFTDFDSQTNVSQSKDSDVYITDKCVLDMRSMDFKSNSAVAWSNKSDFACANAFNNSIIPEDTFFPSSDVPCDVKLVEKSFETDTNLNFQNLSVIGFRILLLKVAGFNLLMTLRLWSSRAKRSGSGVKQTLNFDLLKLAGDVESNPGPSRGHMTEYKPTVRLATRDDVPRAVRTLAAAFADYPATRHTVDPDRHIERVTELQELFLTRVGLDIGKVWVADDGAAVAVWTTPESVEAGAVFAEIGPRMAELSGSRLAAQQQMEGLLAPHRPKEPAWFLATVGVSPDHQGKGLGSAVVLPGVEAAERAGVPAFLETSAPRNLPFYERLGFTVTADVEVPEGPRTWCMTRKPGA
B3: 072516-B05 (protein)
chain: MALPVTALLLPLALLLHAARPEIVMTQSPATLSLSPGERATLSCRASQDISKYLNWYQQKPGQAPRLLIYHTSRLHSGIPARFSGSGSGTDYTLTISSLQPEDFAVYFCQQGNTLPYTFGQGTKLEIKLEGKPIPNPLLGLDSTGSGEDLKNVFPPEVAVFEPSKAEIAHTQKATLVCLATGFYPDHVELSWWVNGKEVHSGVCTDPQPLKEQPALNDSRYCLSSRLRVSATFWQNPRNHFRCQVQFYGLSENDEWTQDRAKPVTQIVSAEAWGRADCGITSASYHQGVLSATILYEILLGKATLYAVLVSALVLMAMVKRKDSRGRAKRSGSGATNFSLLKQAGDVEENPGPTSMDWIWRILFLVGAATGAHSFEQVQLQESGPGLVKPSETLSLTCTVSGVSLPDYGVSWIRQPPGKGLEWIGVIWGSETTYYNSSLKSRVTISKDNSKNQVSLKLSSVTAADTAVYYCAKHYYYGGSYAMDYWGQGTLVTVSSTREQKLISEEDGSGIQNPDPAVYQLRDSKSSDKSVCLFTDFDSQTNVSQSKDSDVYITDKCVLDMRSMDFKSNSAVAWSNKSDFACANAFNNSIIPEDTFFPSSDVPCDVKLVEKSFETDTNLNFQNLSVIGFRILLLKVAGFNLLMTLRLWSSRAKRSGSGVKQTLNFDLLKLAGDVESNPGPSRGHMTEYKPTVRLATRDDVPRAVRTLAAAFADYPATRHTVDPDRHIERVTELQELFLTRVGLDIGKVWVADDGAAVAVWTTPESVEAGAVFAEIGPRMAELSGSRLAAQQQMEGLLAPHRPKEPAWFLATVGVSPDHQGKGLGSAVVLPGVEAAERAGVPAFLETSAPRNLPFYERLGFTVTADVEVPEGPRTWCMTRKPGA
modifications: Synthetic Immune Receptor (SIR)
B4: 091216-K03 (protein)
chain: MALPVTALLLPLALLLHAARPLEGKPIPNPLLGLDSTGSGEDLKNVFPPEVAVFEPSKAEIAHTQKATLVCLATGFYPDHVELSWWVNGKEVHSGVCTDPQPLKEQPALNDSRYCLSSRLRVSATFWQNPRNHFRCQVQFYGLSENDEWTQDRAKPVTQIVSAEAWGRADCGITSASYHQGVLSATILYEILLGKATLYAVLVSALVLMAMVKRKDSRGRAKRSGSGATNFSLLKQAGDVEENPGPTSTMALPVTALLLPLALLLHAARPEIVMTQSPATLSLSPGERATLSCRASQDISKYLNWYQQKPGQAPRLLIYHTSRLHSGIPARFSGSGSGTDYTLTISSLQPEDFAVYFCQQGNTLPYTFGQGTKLEIKGGGGSGGGGSGGGGSQVQLQESGPGLVKPSETLSLTCTVSGVSLPDYGVSWIRQPPGKGLEWIGVIWGSETTYYNSSLKSRVTISKDNSKNQVSLKLSSVTAADTAVYYCAKHYYYGGSYAMDYWGQGTLVTVSSTREQKLISEEDGSGIQNPDPAVYQLRDSKSSDKSVCLFTDFDSQTNVSQSKDSDVYITDKCVLDMRSMDFKSNSAVAWSNKSDFACANAFNNSIIPEDTFFPSSDVPCDVKLVEKSFETDTNLNFQNLSVIGFRILLLKVAGFNLLMTLRLWSSRAKRSGSGVKQTLNFDLLKLAGDVESNPGPSRGHMTEYKPTVRLATRDDVPRAVRTLAAAFADYPATRHTVDPDRHIERVTELQELFLTRVGLDIGKVWVADDGAAVAVWTTPESVEAGAVFAEIGPRMAELSGSRLAAQQQMEGLLAPHRPKEPAWFLATVGVSPDHQGKGLGSAVVLPGVEAAERAGVPAFLETSAPRNLPFYERLGFTVTADVEVPEGPRTWCMTRKPGA
modifications: Synthetic Immune Receptor (SIR)

Tested on: target antigen-expressing cell line
Assay: Jurkat NFAT-GFP assay, coculture with target cell lines expressing the respective target antigen (summary Table 10A)
Assay type: cell-based, human
Design: key: The signs +/−, +, 2+ etc. after the name of the cell lines indicate the relative degree of positivity on the Jurkat-NFAT-GFP assay as measured by the % GFP positive cells; +: relative degree of positivity on the Jurkat-NFAT-GFP assay as measured by the % GFP positive cells; 2+: relative degree of positivity on the Jurkat-NFAT-GFP assay as measured by the % GFP positive cells
Conditions: relative % GFP positive cells; for NFAT-GFP ASSAY Positive Cell lines: RAJI: SIR-expressing Jurkat-NFAT-GFP cells cocultured with RAJI
Procedure: (B) Induction of NFAT promoter driven GFP expression. The control vector- and SIR-expressing Jurkat-NFAT-GFP cocultured for 4-24 hours with the target antigen-expressing cell line (described above) and their ability to bind to the target antigen is assayed by measuring induction of GFP expression using Flow Cytometry. Cellular supernatant is collected and assayed for the induction of cytokines (e.g., IL2).
Jurkat NFAT-GFP Assay For Synthetic Immune Receptors. The Jurkat-NFAT-GFP cells are engineered in such a way that the IL-2 promoter, which carries NFAT binding sites, is cloned upstream of the GFP gene. These cells have been used to study signaling via TCR and CAR. The different SIRs were stably expressed in Jurkat NFAT-GFP cells by lentiviral mediated gene transfer, followed by selection with puromycin. The SIR-expressing Jurkat-NFAT-GFP cells were cocultured with the target cells at E:T ratio of approximately 1:2 for approximately 4 hours to 18 hours. When the interaction between SIRs and their target antigen results in activation of the NFAT pathway, GFP expression is induced.
Induction of GFP expression by coculturing of Jurkat-NFAT-GFP cells expressing different SIR constructs and the different target cells was studied essentially as described previously (Wu, Roybal, Puchner, Onuffer, & Lim, 2015). GFP expression was monitored by FACS analysis. A few representative examples of this assay are shown in the FIG. 13A-B. In panel A, control Jurkat-NFAT-GFP cells or those expressing SIRs targeting CD19 (clone ID 051716-I08), MPL (Clone ID: 040716-A07) and BCMA (Clone ID: 011116-A07) were incubated with RAJI (top), HEL (middle) or U266 (bottom) cells, respectively. […] In panel B, Jurkat cells expressing SIR targeting CDH6 (Clone ID: 051716-J05), CD276 (Clone ID: 050516-Q06) and Her2/neu (Clone ID: 050516-I03) were incubated with SKOV3 (top) and […] (middle and bottom) cells, respectively. […] The Jurkat-NFAT-GFP cells were engineered to express different SIRs targeting other antigens and the experiment repeated upon coculture with the target cells expressing their respective target antigen. The Jurkat-NFAT-GFP (parental) cells were used as control. The names of different SIRs, their SEQ ID NOs, component antigen binding domains and TCR chains can be determined by reference to Tables 7A-7H. A SIR is considered positive in the assay in case the SIR expressing Jurkat-NFAT-GFP cells show greater % GFP positive cells when cultured with the target cell line as compared to parental Jurkat-NFAT-GFP cells. […] The signs +/−, +, 2+ etc. after the name of the cell lines indicate the relative degree of positivity on the Jurkat-NFAT-GFP assay as measured by the % GFP positive cells after culture of the SIR expressing Jurkat-NFAT-GFP cells with that cell line. […] In addition, great diversity of response against the same target cell line is observed with Jurkat cells expressing SIRs containing different antigen binding domains targeting the same antigen (e.g., SIRs having antigen binding domains derived form different CD19 antibodies) even when the SIRs share the same TCR chains and linkers. Finally, Jurkat cells expressing SIRs targeting different antigens (e.g. CD19 vs CD20) show a diversitiy of response when exposed to the same target cell line. Thus, a diverse immune response can be generated against a single target cell by combining SIRs with different TCR chains, linkers, antigen binding domains and target specificity. Table 10A also summarizes the results of GLuc based T cell cytotoxicity assay observed with different SIRs when exposed to their target cell lines. […]

Molecule	NFAT-GFP ASSAY Positive Cell lines: NALM6 (SIR-expressing Jurkat-NFAT-GFP cells cocultured with NALM6)	NFAT-GFP ASSAY Positive Cell lines: RAJI	NFAT-GFP ASSAY Positive Cell lines: HepG2 (SIR-expressing Jurkat-NFAT-GFP cells cocultured with HepG2)
B1	RAJI(2+), NALM6(2+)	RAJI(2+), NALM6(2+)	
B2			HepG2 (+/−)
B3		RAJI(+/−)	
B4		RAJI (+/−)	
